Source: patent US20210261643A1, “INHIBITORS OF P-TEFB MEDIATED TRANSCRIPTION” (The Regents of the University of California, priority 2018, published 2021)

Experiments:
[1] = test system: Tat-dependent gene expression from the HIV promoter; assay: Luciferase reporter assay, pLTR-Luc co-transfected with pTat and pHT in 293T cells; format: cell-based; settings: 293T cells, pHT:pTat ratio 2:1
Description: FIGS. 2A, 2B, and 2C. A HEXIM1-Tat fusion peptide inhibits gene expression from the HIV promoter. FIG. 2A. Structure of the HEXIM1-Tat fusion peptides used in the study. The functional domains used from HEXIM1 and Tat include a HEXIM1 Arginine Rich Motif (ARM, black box, residues 150-162) that binds RNA, a HEXIM1 inhibitory domain (ID, light grey box, residues 200-211) that inhibits CDK9 through a PYNT motif, and Tat transactivation domain (AD, dark grey box, residues 1-48) that binds to P-TEFb. The conceptual schemes are not drawn to scale. FIG. 2B. Transient expression of HT1 inhibits Tat-induced LTR-driven Luc expression. Upper panel: a schema depicts the reporter assay. A luciferase reporter gene (Luc) is under the control of the HIV promoter (P-HIV) and can be activated by ectopically expressed Tat. The Luc assay was used to titrate the inhibitory effect of HT1-3 on P-HIV transactivation by Tat. Middle panel: increasing amounts of m:HT1, m:HT2 or m:HT3 expressing plasmid (pHT) were co-transfected in 293T cells with a plasmid (pTat) expressing f:Tat and another (pLTR-Luc) expressing Luc under the control of the HIV promoter. Luc activity was plotted as % activity relative to control (empty vector used instead of pHT), depending on the transfected pHT:pTat ratio. Error bars in the graph represent standard deviation from triplicate experiments. FIG. 2C. Transient expression of HT1 inhibits Luc expression from HIV-1 NL43ΔenvLuc. Top schema depicts the reporter assay. A luciferase reporter gene (Luc) is inserted in a replication-defective HIV-1 molecular clone (pNL43ΔenvLuc) in which Luc and Tat are under the control of the HIV promoter (P-HIV). A Luc assay was used to titrate the inhibitory effect of HT1-3 on P-HIV transactivation by Tat. Bottom: increasing amounts of pHT1 were co-transfected in 293T cells with pNL43ΔenvLuc. Luc activity was plotted as % activity relative to control (empty vector used instead of pHT), depending on the transfected amounts of pHT1. Error bars in the graph represent standard deviation from triplicate experiments.
Luciferase (Luc) reporter assays were performed to titrate the potency of each chimera to inhibit Tat-dependent gene expression from the HIV promoter. Effector plasmids included pHT1-3 and pTat, which respectively expressed a Myc-epitope tag chimera (m:HT1-3) and a Flag-epitope tagged Tat (f:Tat). pHT1, pHT2 or pHT3 was transiently co-transfected in 293T cells with pTat and a Luc reporter gene under the control of the HIV promoter (P-HIV, expressed from the plasmid pLTR-Luc). […] Finally, HT1 lead to a 4-fold decrease in Luc expression at a 2:1 ratio. […] Similar results were obtained when co-transfecting pHT1-3 and pTat in NIH1 cells, which stably carry an LTR-Luc reporter gene. Thus, we selected HT1 for further investigation.

[2] = test system: HIV promoter (P-HIV) transactivation by Tat; assay: Luc assay with replication-defective HIV-1 molecular clone pNL43ΔenvLuc in 293T cells; format: cell-based; settings: transient expression
HIV TAR RNA = assay: RNA immunoprecipitation and RT-qPCR with TAR-specific primers in 293T cells; format: binding
Experimental: FIGS. 3A, 3B, 3C and 3D. HT1 prevents Tat from bringing active P-TEFb to TAR. FIG. 3A: HT1 inhibits the kinase activity of P-TEFb subunit CDK9. m:HT1 and/or f:Tat were transiently expressed in 293T cells. Cell lysates were used for IP using anti-Myc Ab (lanes 2-4), or control IgG (lane 1). Immunoprecipitates were incubated with ATP and recombinant GST-CTD proteins for in vitro kinase assay. Six replicate experiments were performed, and mean relative kinase activities are shown in the bar graph to the right. FIG. 3B: HT1 binds to TAR. m:HT1 or m:Tat (or empty vector, EV, as a control) was transiently co-expressed with TAR RNA-expressing pU16TAR in 293T cells. Cell lysates were used for IP using anti-Myc Ab or control IgG. RNA was purified from the immunoprecipitates and submitted to RT-qPCR using TAR-specific primers. Relative TAR enrichment was calculated as qPCR count using anti-Myc Ab minus using IgG, and normalized to EV. Error bars represent standard deviation from triplicate qPCR assays. […] Error bars represent standard deviation from triplicate qPCR assays. FIG. 3D: HT1 competes with Tat for TAR binding. m:HT1 and/or f:Tat were transiently co-expressed with TAR RNA-expressing pU16TAR in 293T cells. Cell lysates were used for IP using anti-Myc Ab or control IgG. RNA was purified from the immunoprecipitates and submitted to RT-qPCR using TAR-specific primers (upper panel). Relative TAR enrichment was calculated as qPCR count using anti-Myc Ab minus using IgG, and normalized to EV. Error bars represent standard deviation from triplicate qPCR assays.
Finally, since HEXIM1 ARM resembles the TAR-binding domain from Tat, we investigated whether HT1 could bind to HIV TAR. m:HT1 or m:Tat was co-expressed in 293T cells with TAR RNA, expressed under RNA Polymerase III dependent H1 promoter, and immunoprecipitated using anti-Myc Ab or IgG as a control. TAR RNAs co-immunoprecipitated with HT1 or Tat were quantified by RT-qPCR analysis. […] To test whether HT1 affects Tat-TAR interactions, increasing amounts of m:HT1 were also co-expressed with a fixed amount of f:Tat and TAR. […] As expected, HT1 also bound to endogenous 7SK snRNA.

B1: HT1 (protein)
chain: KKKHRRRPSKKKRHWKPYYKLTWEEKKKFDEKQSLRASRIRAEMFAKGQPVAPYNTTQFLMDDHDQEEPDLVDMEPVDPYLEPWKHPGSQPRTACNNCYCKKCCFHCYACFTRKGLGISYG
modifications: left off: small tags and cut ends
decrease in Luc expression from the HIV promoter [1]: 4 fold | decrease in Luc expression [2]: 3 fold | immunoprecipitation of TAR RNA (in words) (HIV TAR RNA; 293T cells, anti-Myc Ab, RT-qPCR): immunoprecipitated TAR | amounts of TAR RNA co-immunoprecipitated with f:Tat (HIV TAR RNA; fixed amount of f:Tat and TAR, increasing m:HT1, anti-Flag Ab): decreased progressively | TAR bound, normalized by protein levels of m:HT1 and m:Tat (HIV TAR RNA; normalized to protein in input lysate): at least as much TAR as m:Tat
